± gives the standard error. Fewer inactive variants are shown than the library holds.
B1: glmS ribozyme (parent)
chain: AUAAAAGCGCCAGAACUACAGAAAUGUAGUUGACGAGGAGGAGGUUUAUCGAAUUUUCGGCGGAUGCCUCCAAA

Variants of: B1
Experiment: self-cleavage kobs at 2500 uM GlcN6P; higher = faster cleavage; RNA array
Settings: with glucosamine-6-phosphate
Method in brief: (§1)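 kcat and KM were obtained from weighted Michaelis–Menten fits across concentrations of kobs values. Those came from one- or two-exponential decay fits to per-tile medians normalised to baseline and to non-cleaving reference variants. The variants were barcoded ribozymes transcribed in situ by E. coli RNA polymerase on sequenced MiSeq chips and tracked through a hybridised Cy3 probe at 37 °C, with 40 μM to 10 mM glucosamine-6-phosphate in HEPES/KCl/Mg(OAc)2 buffer flowed in.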

Variant | self-cleavage kobs at 2500 uM GlcN6P [s⁻¹]
A12U A33U G37U U56A | < 1e-05
C8U G60U C70G | < 1e-05
U30G A42G U65G C67U | 0.000104 ± 3.7e-05
C16A A39C A42U G51C C61G | < 1e-05
C11A A12U G32U C50U U56A C58A | < 1e-05
G13U G38U C68U | < 1e-05
A6U G41U G59A G62C | < 1e-05
G13C C71U | 9.01e-05 ± 1.5e-05
C11G U55A C61A U69A C71G | 0.000284 ± 8.5e-05
C34U A39C G59A | < 1e-05
G29C A64G G66U | 4.43e-05 ± 1.8e-05
A33G A36G A52U | < 1e-05
A12G A15G G44A U54A C61U | < 1e-05
C10U U45A | 2.72e-05 ± 1.3e-05
U49A U54G | 4.22e-05 ± 1.9e-05
G29U U45C U46G | 6.29e-05 ± 2.8e-05
C11U C16G C70G | 5.75e-05 ± 2.7e-05
U31C A42U U56C G66C | < 1e-05
C10U G35C G51U U56G G62U | < 1e-05
A14G G35U C67U | < 1e-05
C11A A14C A42C U55C A64G | < 1e-05
G37A G62C A64U | < 1e-05
A33C C61A G62U | < 1e-05
G9C C11A G63C | < 1e-05
G32U G35C U46G | < 1e-05
U31C G41C U45A A52G C61G | < 1e-05
G9C A42C A52C G66C | < 1e-05

Variants of: B1
Experiment: self-cleavage kobs at 10000 uM GlcN6P; higher = faster cleavage; RNA array
Settings: with glucosamine-6-phosphate
Method in brief: as §1

Variant | self-cleavage kobs at 10000 uM GlcN6P [s⁻¹]
G32A U55G U65G G66U C70G | 3.69e-05 ± 1.7e-05
A42C U49C U57A | < 1e-05
G9A U65A C67A C70G | 5.56e-05 ± 1.6e-05
G32A A52G C70A | 5.69e-05 ± 2.3e-05
C8G G51U G59U | < 1e-05
G29U U55A U69A | 4.12e-05 ± 1.6e-05
G37C U55G | 3.62e-05 ± 8.4e-06
G37C U55A | 4.97e-05 ± 1e-05
A15U G59U C71G | < 1e-05
A14U C50G G62A A64G | 0.000115 ± 2.4e-05
A15U A53U G63C | < 1e-05
A42U U56C | 5.38e-05 ± 1.2e-05
C11U A39U U54G | 0.000492 ± 0.00011
C34A A36C G37U U69G | 0.000153 ± 3.2e-05
G9A C34A A64G C70G | < 1e-05
C10G C34A C67G | 0.00066 ± 0.00026
G32A A33U G37U | < 1e-05
G13C C71U | 0.000149 ± 1.6e-05
G32U U57A C68G | 6.42e-05 ± 2.1e-05
U30A U65A C71U | 0.000453 ± 8.5e-05

Variant | self-cleavage kobs at 10000 uM GlcN6P [s⁻¹]
A12G G41U C70U | 0.00122 ± 0.00022
A15G U49A G62U | < 1e-05
U31A A36U U47G C70G | 5.95e-05 ± 1.5e-05
A12G A14C A39C G44U G51U | < 1e-05
G40A G44U U47G G60U C61U C68U | < 1e-05
C34G G35U G38A C50A U69G | 0.000375 ± 5.4e-05
C50G U54G U65G | < 1e-05
G13C A14G G41U | 6.44e-05 ± 1.7e-05
A39U A42G U46C | 0.00379 ± 0.00069
A33G A36G A52U | < 1e-05
C10U U31C U57G | < 1e-05
G32A A64U C68U | < 1e-05
A14U U30G U55G C70A | 3.35e-05 ± 1.5e-05
C10U U45A | 2.12e-05 ± 8.6e-06
A42U A48U U65C | < 1e-05
G7C A14U U47A | < 1e-05
G40C G51C U57A | < 1e-05
C11A G40A U55G C71G | < 1e-05
G26U U49G U56A | 0.00027 ± 6.8e-05
G13U U30A G43C | < 1e-05

Variant | self-cleavage kobs at 10000 uM GlcN6P [s⁻¹]
C11G G60U U69G | < 1e-05
C11U C16G C70G | 0.000142 ± 4.4e-05
U31G G40U C67A | 6.16e-05 ± 1.3e-05
C50G C67U C68G C71G | 0.000108 ± 2.8e-05
A36C A48U G63A | < 1e-05
C16A G44A C67A | 9.58e-05 ± 2.5e-05
C10U A15C U31C | < 1e-05
G13U U54A U56C | 0.000163 ± 3.3e-05
G43U U65G C68U | 0.0019 ± 0.00044
U31G G44C | 4.96e-05 ± 1.3e-05
G26U U69A | 6.81e-05 ± 2.1e-05
A52C C67A | 2.55e-05 ± 1.1e-05
G7A G29C U47G A53G | < 1e-05
A14G U54A C70G | 0.000124 ± 2.6e-05
A6G C16G C50G | 5.57e-05 ± 2.1e-05
C8A C16U U31C G37U A39U A42U A48U | < 1e-05
C11G A14C G43U | < 1e-05
C8U G51U U69A | 0.000401 ± 0.00014

From the supplement of paper PMC7125110
